Experimental data as given in patent US20140112930A1 (published 2014).

How the values were obtained:
Test in all cases: blocking ELISA, 16.67 nM antibody, Ang-2FD-hFc to coated hTie-2-mFc
Human Ang-2FD-hFc = biological target: T1, Human Ang-2FD-hFc (human)
T1 construct: also called dimeric human Ang-2FD; human Ang-2FD protein conjugated to human IgG

Mouse Ang-2FD-hFc = biological target: T2, Mouse Ang-2FD-hFc (mouse (Mus musculus))
T2 construct: also called dimeric mouse Ang-2FD

Monkey Ang-2FD-hFc = biological target: T3, Monkey Ang-2FD-hFc (monkey (Macca fascicularis))
T3 construct: also called dimeric monkey Ang-2FD
T3 sequence (chain, as listed by the source limits assumed): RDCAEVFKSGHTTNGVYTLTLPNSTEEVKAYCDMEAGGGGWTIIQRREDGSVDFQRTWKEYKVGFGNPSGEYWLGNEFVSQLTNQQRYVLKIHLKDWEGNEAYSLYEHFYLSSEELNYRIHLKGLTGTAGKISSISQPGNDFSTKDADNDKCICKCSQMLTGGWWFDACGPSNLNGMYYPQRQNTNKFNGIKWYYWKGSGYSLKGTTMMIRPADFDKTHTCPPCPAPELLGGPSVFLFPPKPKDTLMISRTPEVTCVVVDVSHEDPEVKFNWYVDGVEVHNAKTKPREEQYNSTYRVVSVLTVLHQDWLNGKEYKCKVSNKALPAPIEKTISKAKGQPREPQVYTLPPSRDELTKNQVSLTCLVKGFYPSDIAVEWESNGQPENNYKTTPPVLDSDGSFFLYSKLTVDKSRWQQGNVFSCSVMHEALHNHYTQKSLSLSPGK

T1 sequence (chain, as listed by the source limits assumed): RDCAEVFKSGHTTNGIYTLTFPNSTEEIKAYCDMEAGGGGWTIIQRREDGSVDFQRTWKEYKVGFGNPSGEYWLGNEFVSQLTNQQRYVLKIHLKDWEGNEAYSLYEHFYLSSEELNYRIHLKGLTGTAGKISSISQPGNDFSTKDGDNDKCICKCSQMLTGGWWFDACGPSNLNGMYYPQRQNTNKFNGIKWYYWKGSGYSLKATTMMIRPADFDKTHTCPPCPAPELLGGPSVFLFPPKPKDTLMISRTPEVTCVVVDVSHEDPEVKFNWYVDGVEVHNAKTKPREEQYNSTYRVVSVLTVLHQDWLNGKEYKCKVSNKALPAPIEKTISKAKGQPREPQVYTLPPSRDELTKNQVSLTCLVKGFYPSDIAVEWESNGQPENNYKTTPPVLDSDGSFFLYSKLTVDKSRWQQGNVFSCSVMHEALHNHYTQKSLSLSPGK
T2 sequence (chain, as listed by the source limits assumed): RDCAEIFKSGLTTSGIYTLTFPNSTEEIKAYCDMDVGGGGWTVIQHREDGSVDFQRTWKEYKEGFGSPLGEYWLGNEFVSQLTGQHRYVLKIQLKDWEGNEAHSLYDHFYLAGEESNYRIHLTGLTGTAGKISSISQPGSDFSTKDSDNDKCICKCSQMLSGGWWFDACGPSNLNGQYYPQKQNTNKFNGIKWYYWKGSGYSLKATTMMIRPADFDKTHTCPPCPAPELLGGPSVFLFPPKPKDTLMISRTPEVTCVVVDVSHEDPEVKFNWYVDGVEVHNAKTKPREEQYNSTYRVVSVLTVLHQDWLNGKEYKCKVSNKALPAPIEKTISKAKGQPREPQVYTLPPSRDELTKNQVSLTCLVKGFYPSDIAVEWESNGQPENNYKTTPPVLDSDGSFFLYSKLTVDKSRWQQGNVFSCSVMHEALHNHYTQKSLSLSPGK

B1: H1H744N (antibody, V domains shown)
VH: QVQLVQSGVEVKKPGASVKVSCKTSGYTFSNNGFSWVRQAPGQGLEWLGWISGYNGNTNYAQKFQGRVTMTTDTSTSTAYMELRTLRSDDTAVYYCARDQDYSNFHWLDPWGQGTLVTVAS
VL: DIQMTQSPSSVSASVGDRVIITCRASQGLSSWLAWYQQKPGTAPKLLIHSASSLQTGVPSRFSGSGSGTEFALTINSLQPEDFGTYYCQQANSFPLTFGGGTRVEIK
- Percent Blocking of Ang-2FD Binding to Tie-2 (Human Ang-2FD-hFc): 97.9%
- Percent Blocking of Ang-2FD Binding to Tie-2 (Mouse Ang-2FD-hFc): 97.6%
- Percent Blocking of Ang-2FD Binding to Tie-2 (Monkey Ang-2FD-hFc): 96.2%
